# Assay results reported in IntAct's records for PubMed 31515488.
# B1: Tuftelin-interacting protein 11 (Homo sapiens), Q9UBB9 (parent)
# chain: MSLSHLYRDGEGRIDDDDDERENFEITDWDLQNEFNPNRQRHWQTKEEATYGVWAERDSDDERPSFGGKRARDYSAPVNFISAGLKKGAAEEAELEDSDDEEKPVKQDDFPKDFGPRKLKTGGNFKPSQKGFAGGTKSFMDFGSWERHTKGIGQKLLQKMGYVPGRGLGKNAQGIINPIEAKQRKGKGAVGAYGSERTTQSMQDFPVVDSEEEAEEEFQKELSQWRKDPSGSKKKPKYSYKTVEELKAKGRISKKLTAPQKELSQVKVIDMTGREQKVYYSYSQISHKHNVPDDGLPLQSQQLPQSGKEAKAPGFALPELEHNLQLLIDLTEQEIIQNDRQLQYERDMVVNLFHELEKMTEVLDHEERVISNLSKVLEMVEECERRMQPDCSNPLTLDECARIFETLQDKYYEEYRMSDRVDLAVAIVYPLMKEYFKEWDPLKDCTYGTEIISKWKSLLENDQLLSHGGQDLSADAFHRLIWEVWMPFVRNIVTQWQPRNCDPMVDFLDSWVHIIPVWILDNILDQLIFPKLQKEVENWNPLTDTVPIHSWIHPWLPLMQARLEPLYSPIRSKLSSALQKWHPSDSSAKLILQPWKDVFTPGSWEAFMVKNIVPKLGMCLGELVINPHQQHMDAFYWVIDWEGMISVSSLVGLLEKHFFPKWLQVLCSWLSNSPNYEEITKWYLGWKSMFSDQVLAHPSVKDKFNEALDIMNRAVSSNVGAYMQPGARENIAYLTHTERRKDFQYEAMQERREAENMAQRGIGVAASSVPMNFKDLIETKAEEHNIVFMPVIGKRHEGKQLYTFGRIVIYIDRGVVFVQGEKTWVPTSLQSLIDMAK
# partner: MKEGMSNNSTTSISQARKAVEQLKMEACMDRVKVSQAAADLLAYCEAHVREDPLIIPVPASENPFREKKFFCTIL
# B2: CD2 antigen cytoplasmic tail-binding protein 2 (Homo sapiens), O95400 (parent)
# chain: MPKRKVTFQGVGDEEDEDEIIVPKKKLVDPVAGSGGPGSRFKGKHSLDSDEEEDDDDGGSSKYDILASEDVEGQEAATLPSEGGVRITPFNLQEEMEEGHFDADGNYFLNRDAQIRDSWLDNIDWVKIRERPPGQRQASDSEEEDSLGQTSMSAQALLEGLLELLLPRETVAGALRRLGARGGGKGRKGPGQPSSPQRLDRLSGLADQMVARGNLGVYQETRERLAMRLKGLGCQTLGPHNPTPPPSLDMFAEELAEEELETPTPTQRGEAESRGDGLVDVMWEYKWENTGDAELYGPFTSAQMQTWVSEGYFPDGVYCRKLDPPGGQFYNSKRIDFDLYT
# B3: Transcriptional repressor p66-beta (Homo sapiens), Q8WXI9 (parent)
# chain: MDRMTEDALRLNLLKRSLDPADERDDVLAKRLKMEGHEAMERLKMLALLKRKDLANLEVPHELPTKQDGSGVKGYEEKLNGNLRPHGDNRTAGRPGKENINDEPVDMSARRSEPERGRLTPSPDIIVLSDNEASSPRSSSRMEERLKAANLEMFKGKGIEERQQLIKQLRDELRLEEARLVLLKKLRQSQLQKENVVQKTPVVQNAASIVQPSPAHVGQQGLSKLPSRPGAQGVEPQNLRTLQGHSVIRSATNTTLPHMLMSQRVIAPNPAQLQGQRGPPKPGLVRTTTPNMNPAINYQPQSSSSVPCQRTTSSAIYMNLASHIQPGTVNRVSSPLPSPSAMTDAANSQAAAKLALRKQLEKTLLEIPPPKPPAPLLHFLPSAANSEFIYMVGLEEVVQSVIDSQGKSCASLLRVEPFVCAQCRTDFTPHWKQEKNGKILCEQCMTSNQKKALKAEHTNRLKNAFVKALQQEQEIEQRLQQQAALSPTTAPAVSSVSKQETIMRHHTLRQAPQPQSSLQRGIPTSARSMLSNFAQAPQLSVPGGLLGMPGVNIAYLNTGIGGHKGPSLADRQREYLLDMIPPRSISQSISGQK
# B4: Bcl-2-interacting killer (Homo sapiens), Q13323 (parent)
# chain: MSEVRPLSRDILMETLLYEQLLEPPTMEVLGMTDSEEDLDPMEDFDSLECMEGSDALALRLACIGDEMDVSLRAPRLAQLSEVAMHSLGLAFIYDQTEDIRDVLRSFMDGFTTLKENIMRFWRSPNPGSWVSCEQVLLALLLLLALLLPLLSGGLHLLLK
# partner: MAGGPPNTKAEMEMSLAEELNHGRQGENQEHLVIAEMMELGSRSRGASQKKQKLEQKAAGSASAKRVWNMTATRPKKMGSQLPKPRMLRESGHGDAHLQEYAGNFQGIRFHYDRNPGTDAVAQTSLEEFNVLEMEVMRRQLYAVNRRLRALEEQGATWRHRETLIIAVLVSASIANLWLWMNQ
# B5: Four and a half LIM domains protein 2 (Homo sapiens), Q14192 (parent)
# chain: MTERFDCHHCNESLFGKKYILREESPYCVVCFETLFANTCEECGKPIGCDCKDLSYKDRHWHEACFHCSQCRNSLVDKPFAAKEDQLLCTDCYSNEYSSKCQECKKTIMPGTRKMEYKGSSWHETCFICHRCQQPIGTKSFIPKDNQNFCVPCYEKQHAMQCVQCKKPITTGGVTYREQPWHKECFVCTACRKQLSGQRFTARDDFAYCLNCFCDLYAKKCAGCTNPISGLGGTKYISFEERQWHNDCFNCKKCSLSLVGRGFLTERDDILCPDCGKDI
# partner: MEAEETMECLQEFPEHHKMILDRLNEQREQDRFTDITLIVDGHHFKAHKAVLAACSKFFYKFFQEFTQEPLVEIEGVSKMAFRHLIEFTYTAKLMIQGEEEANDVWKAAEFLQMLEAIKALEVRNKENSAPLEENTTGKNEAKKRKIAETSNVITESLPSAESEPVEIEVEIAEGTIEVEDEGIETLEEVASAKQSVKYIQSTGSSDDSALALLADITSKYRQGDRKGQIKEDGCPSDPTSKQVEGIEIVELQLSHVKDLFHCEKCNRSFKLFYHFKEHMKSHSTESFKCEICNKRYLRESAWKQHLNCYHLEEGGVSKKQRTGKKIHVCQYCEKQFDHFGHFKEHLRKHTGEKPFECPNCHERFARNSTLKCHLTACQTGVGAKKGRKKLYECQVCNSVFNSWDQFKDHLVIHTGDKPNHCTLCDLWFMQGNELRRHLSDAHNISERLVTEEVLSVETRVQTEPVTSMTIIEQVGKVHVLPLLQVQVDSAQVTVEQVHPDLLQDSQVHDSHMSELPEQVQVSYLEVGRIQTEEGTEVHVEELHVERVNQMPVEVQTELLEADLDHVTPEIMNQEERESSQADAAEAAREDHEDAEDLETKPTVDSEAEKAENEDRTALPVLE
# B6: Paraneoplastic antigen Ma2 (Homo sapiens), Q9UL42 (parent)
# chain: MALALLEDWCRIMSVDEQKSLMVTGIPADFEEAEIQEVLQETLKSLGRYRLLGKIFRKQENANAVLLELLEDTDVSAIPSEVQGKGGVWKVIFKTPNQDTEFLERLNLFLEKEGQTVSGMFRALGQEGVSPATVPCISPELLAHLLGQAMAHAPQPLLPMRYRKLRVFSGSAVPAPEEESFEVWLEQATEIVKEWPVTEAEKKRWLAESLRGPALDLMHIVQADNPSISVEECLEAFKQVFGSLESRRTAQVRYLKTYQEEGEKVSAYVLRLETLLRRAVEKRAIPRRIADQVRLEQVMAGATLNQMLWCRLRELKDQGPPPSFLELMKVIREEEEEEASFENESIEEPEERDGYGRWNHEGDD
# B7: E3 ubiquitin-protein ligase Midline-1 (Homo sapiens), O15344 (parent)
# chain: METLESELTCPICLELFEDPLLLPCAHSLCFNCAHRILVSHCATNESVESITAFQCPTCRHVITLSQRGLDGLKRNVTLQNIIDRFQKASVSGPNSPSETRRERAFDANTMTSAEKVLCQFCDQDPAQDAVKTCVTCEVSYCDECLKATHPNKKPFTGHRLIEPIPDSHIRGLMCLEHEDEKVNMYCVTDDQLICALCKLVGRHRDHQVAALSERYDKLKQNLESNLTNLIKRNTELETLLAKLIQTCQHVEVNASRQEAKLTEECDLLIEIIQQRRQIIGTKIKEGKVMRLRKLAQQIANCKQCIERSASLISQAEHSLKENDHARFLQTAKNITERVSMATASSQVLIPEINLNDTFDTFALDFSREKKLLECLDYLTAPNPPTIREELCTASYDTITVHWTSDDEFSVVSYELQYTIFTGQANVVSLCNSADSWMIVPNIKQNHYTVHGLQSGTKYIFMVKAINQAGSRSSEPGKLKTNSQPFKLDPKSAHRKLKVSHDNLTVERDESSSKKSHTPERFTSQGSYGVAGNVFIDSGRHYWEVVISGSTWYAIGLAYKSAPKHEWIGKNSASWALCRCNNNWVVRHNSKEIPIEPAPHLRRVGILLDYDNGSIAFYDALNSIHLYTFDVAFAQPVCPTFTVWNKCLTIITGLPIPDHLDCTEQLP
# partner: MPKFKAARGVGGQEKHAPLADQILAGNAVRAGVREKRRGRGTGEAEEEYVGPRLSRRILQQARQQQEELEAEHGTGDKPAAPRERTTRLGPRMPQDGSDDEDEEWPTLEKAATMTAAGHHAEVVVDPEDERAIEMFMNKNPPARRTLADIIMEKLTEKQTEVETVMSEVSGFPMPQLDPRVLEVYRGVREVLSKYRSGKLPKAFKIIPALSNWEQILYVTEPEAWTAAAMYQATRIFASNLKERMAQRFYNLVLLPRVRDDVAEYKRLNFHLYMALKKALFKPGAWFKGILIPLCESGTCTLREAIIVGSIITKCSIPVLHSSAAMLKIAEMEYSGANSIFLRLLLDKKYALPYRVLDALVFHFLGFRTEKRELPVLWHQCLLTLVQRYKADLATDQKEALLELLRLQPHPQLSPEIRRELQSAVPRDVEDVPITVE
# B8: Retinoic acid receptor RXR-gamma (Homo sapiens), P48443 (parent)
# chain: MYGNYSHFMKFPAGYGGSPGHTGSTSMSPSAALSTGKPMDSHPSYTDTPVSAPRTLSAVGTPLNALGSPYRVITSAMGPPSGALAAPPGINLVAPPSSQLNVVNSVSSSEDIKPLPGLPGIGNMNYPSTSPGSLVKHICAICGDRSSGKHYGVYSCEGCKGFFKRTIRKDLIYTCRDNKDCLIDKRQRNRCQYCRYQKCLVMGMKREAVQEERQRSRERAESEAECATSGHEDMPVERILEAELAVEPKTESYGDMNMENSTNDPVTNICHAADKQLFTLVEWAKRIPHFSDLTLEDQVILLRAGWNELLIASFSHRSVSVQDGILLATGLHVHRSSAHSAGVGSIFDRVLTELVSKMKDMQMDKSELGCLRAIVLFNPDAKGLSNPSEVETLREKVYATLEAYTKQKYPEQPGRFAKLLLRLPALRSIGLKCLEHLFFFKLIGDTPIDTFLMEMLETPLQIT
# partner: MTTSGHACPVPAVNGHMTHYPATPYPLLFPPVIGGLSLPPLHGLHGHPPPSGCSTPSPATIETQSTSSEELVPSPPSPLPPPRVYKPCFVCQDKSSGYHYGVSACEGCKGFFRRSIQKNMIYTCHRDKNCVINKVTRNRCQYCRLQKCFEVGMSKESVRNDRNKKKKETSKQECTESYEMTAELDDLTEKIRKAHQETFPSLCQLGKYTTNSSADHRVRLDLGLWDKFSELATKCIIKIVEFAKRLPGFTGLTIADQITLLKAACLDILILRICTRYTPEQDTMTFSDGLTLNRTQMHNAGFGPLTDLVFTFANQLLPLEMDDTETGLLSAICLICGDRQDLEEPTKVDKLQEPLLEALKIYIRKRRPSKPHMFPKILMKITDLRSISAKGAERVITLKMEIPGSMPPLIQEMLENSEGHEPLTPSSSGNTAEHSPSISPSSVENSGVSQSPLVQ
# B9: Tuftelin-interacting protein 11 (Homo sapiens), Q9UBB9 (parent)
# chain: B1 chain
# partner: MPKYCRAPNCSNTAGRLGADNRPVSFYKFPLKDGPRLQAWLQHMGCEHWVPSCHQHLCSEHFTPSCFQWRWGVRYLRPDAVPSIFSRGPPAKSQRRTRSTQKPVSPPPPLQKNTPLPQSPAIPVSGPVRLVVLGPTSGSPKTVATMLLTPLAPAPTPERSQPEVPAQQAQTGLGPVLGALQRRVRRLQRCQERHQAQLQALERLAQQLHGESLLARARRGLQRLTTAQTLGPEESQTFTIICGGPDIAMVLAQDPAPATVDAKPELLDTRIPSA
# Variants of: B1
# Conditions: with gbg4_human GNG4, P50150
row,effect of a mutation on the interaction,Variant
1,with no effect,R8Q
2,with no effect,S688L

# Variants of: B2
# Conditions: with rsmb_human SNRPB
row,effect of a mutation on the interaction,Variant
1,with no effect,T262I

# Variants of: B3
# Conditions: with traf1_human TRAF1, Q13077
# Chain of traf1_human TRAF1, Q13077 (Q13077 whole entry): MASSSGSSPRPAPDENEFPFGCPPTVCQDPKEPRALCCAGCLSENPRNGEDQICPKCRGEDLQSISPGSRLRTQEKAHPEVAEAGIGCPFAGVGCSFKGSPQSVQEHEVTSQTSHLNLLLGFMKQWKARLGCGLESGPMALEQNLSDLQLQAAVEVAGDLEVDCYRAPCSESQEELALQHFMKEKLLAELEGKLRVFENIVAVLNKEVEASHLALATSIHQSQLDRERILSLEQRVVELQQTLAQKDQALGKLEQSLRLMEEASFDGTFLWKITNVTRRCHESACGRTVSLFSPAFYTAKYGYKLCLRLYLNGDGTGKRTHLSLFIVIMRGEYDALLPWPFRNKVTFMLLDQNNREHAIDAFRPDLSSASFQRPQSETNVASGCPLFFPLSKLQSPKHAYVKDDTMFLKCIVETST
row,effect of a mutation on the interaction,Variant
1,with no effect,A490V

# Variants of: B4
# Conditions: with fate1_human FATE1, Q969F0
row,effect of a mutation on the interaction,Variant
1,with no effect,D69E

# Variants of: B5
# Conditions: with zn131_human ZNF131, P52739
row,effect of a mutation on the interaction,Variant
1,with no effect,N95K
2,with no effect,A37S

# Variants of: B6
# Conditions: with sdcb1_human SDCBP
row,effect of a mutation on the interaction,Variant
1,with no effect,E186K

# Variants of: B6
# Conditions: with psa1_human PSMA1, P25786
# Chain of psa1_human PSMA1, P25786 (P25786 whole entry): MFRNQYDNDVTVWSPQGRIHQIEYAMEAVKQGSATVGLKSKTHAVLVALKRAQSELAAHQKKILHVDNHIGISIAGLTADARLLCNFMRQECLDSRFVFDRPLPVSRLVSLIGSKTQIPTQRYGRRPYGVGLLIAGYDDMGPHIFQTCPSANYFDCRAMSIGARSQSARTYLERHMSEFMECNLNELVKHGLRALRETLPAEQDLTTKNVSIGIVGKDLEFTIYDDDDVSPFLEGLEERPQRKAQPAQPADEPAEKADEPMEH
row,effect of a mutation on the interaction,Variant
1,with no effect,E186K

# Variants of: B7
# Conditions: with byst_human BYSL
row,effect of a mutation on the interaction,Variant
1,disrupting interaction strength,D84N

# Variants of: B8
# Conditions: with rarb_human RARB
row,effect of a mutation on the interaction,Variant
1,with no effect,A86V

# Variants of: B9
# Conditions: with thap8_human THAP8, Q8NA92
row,effect of a mutation on the interaction,Variant
1,with no effect,S688L
2,with no effect,R8Q
